Assay results reported in FireProtDB (doi:10.1021/bi00250a032).
“And” between values parts separate entries of the source, which are not always exact repeats. Equal values may be shown once.

Settings: Streptomyces sp. EC3, Thermal, DSC, reversible: yes
[1] = pH 7.5, Sodium phosphate 60 mM, transition: 3
[2] = pH 8.9, glycine-NaOH 60 mM, transition: 4

Sequence of Endo-1,4-beta-xylanase wild type, Q56013 (Q56013 entry or part of it): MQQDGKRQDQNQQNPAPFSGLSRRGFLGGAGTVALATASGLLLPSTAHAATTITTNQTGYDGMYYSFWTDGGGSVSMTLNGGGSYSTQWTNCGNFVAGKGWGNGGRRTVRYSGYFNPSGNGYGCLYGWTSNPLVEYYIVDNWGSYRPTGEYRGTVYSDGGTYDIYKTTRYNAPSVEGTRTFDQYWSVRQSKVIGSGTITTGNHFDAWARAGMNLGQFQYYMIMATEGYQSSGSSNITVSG

Substance: Endo-1,4-beta-xylanase wild type, Q56013
- unfolding enthalpy (calorimetric) (pH 3.6, Sodium phosphate 60 mM, transition: 4): 66 kcal/mol and 84 kcal/mol and 108 kcal/mol
- unfolding enthalpy (calorimetric) (pH 4.1, Sodium phosphate 60 mM, transition: 3): 57 kcal/mol and 100 kcal/mol
- unfolding enthalpy (calorimetric) (pH 6.3, Sodium phosphate 60 mM, transition: 4): 100 kcal/mol and 150 kcal/mol and 223 kcal/mol
- Tm [1]: 60.5 °C and 64 °C
- unfolding enthalpy (calorimetric) [1]: 99 kcal/mol and 200 kcal/mol
- unfolding enthalpy (calorimetric) (pH 7.5, Sodium phosphate 60 mM, transition: 4): 93 kcal/mol and 137 kcal/mol and 187 kcal/mol
- unfolding enthalpy (calorimetric) (pH 8.9, glycine-NaOH 60 mM, transition: 3): 72 kcal/mol and 136 kcal/mol
- Tm [2]: 51.5 °C and 54.6 °C
- unfolding enthalpy (calorimetric) [2]: 118 kcal/mol and 157 kcal/mol
